From US20230076063 come the findings set out here.

The test system of series [1] is MamA DNA methyltransferase (Mycobacterium tuberculosis). As to the kind of experiment: cell_activity. Conditions: SMRT sequencing kinetics; mostly fully methylated reads.
The subject of series [2] is MamB DNA methyltransferase (Mycobacterium tuberculosis). As to the kind of experiment: cell_activity. The following applies: SMRT sequencing kinetics.

Turning to “CTGGAG (double strand) [MamA target motif sites]”, the activity (mean SMALR native score) in series [1] was found to be 2.14.

For MamB target motif sites, in series [2], the activity (mean SMALR native score) was determined as 2.19.
